Test results reported in the MegaScale stability set (Tsuboyama et al. 2023).

B1: HEEH_KT_rd6_0007 (parent)
chain: SIEEEIKKAEEAKEKGKTFIHGDFVATTEELLDELLKRLRKKL

Variants of: B1
Experiment: folding stability dG (cDNA display proteolysis); higher = more stable
Settings: PBS, room temperature

Point of comparison: SIEEEIKKAEEAKEKGKTFIHGDFVATTEELLDELWKRLRKKL [L36W], “folding stability dG” value 0.856 kcal/mol. Against it:
- SIEEEIKKAEEAKEKGKTFIHGDFVATTEELLDEPLKRLRKKL [L35P] — lower, -0.141 kcal/mol
- SIEEEIKKAEEAKEKGKTFIHGDFVATTEELLDEQLKRLRKKL [L35Q] — lower, 0.486 kcal/mol
- SIEEEIKKAEEAKEKGKTFIHGDFVATTEELLDERLKRLRKKL [L35R] — lower, 0.542 kcal/mol
- SIEEEIKKAEEAKEKGKTFIHGDFVATTEELLDESLKRLRKKL [L35S] — lower, 0.043 kcal/mol
- SIEEEIKKAEEAKEKGKTFIHGDFVATTEELLDETLKRLRKKL [L35T] — lower, 0.38 kcal/mol
- SIEEEIKKAEEAKEKGKTFIHGDFVATTEELLDEVLKRLRKKL [L35V] — lower, 0.702 kcal/mol
- SIEEEIKKAEEAKEKGKTFIHGDFVATTEELLDEWLKRLRKKL [L35W] — higher, 0.882 kcal/mol
- SIEEEIKKAEEAKEKGKTFIHGDFVATTEELLDEYLKRLRKKL [L35Y] — lower, 0.817 kcal/mol
- SIEEEIKKAEEAKEKGKTFIHGDFVATTEELLDELAKRLRKKL [L36A] — lower, 0.394 kcal/mol
- SIEEEIKKAEEAKEKGKTFIHGDFVATTEELLDELDKRLRKKL [L36D] — lower, -0.448 kcal/mol
- SIEEEIKKAEEAKEKGKTFIHGDFVATTEELLDELEKRLRKKL [L36E] — lower, -0.06 kcal/mol
- SIEEEIKKAEEAKEKGKTFIHGDFVATTEELLDELFKRLRKKL [L36F] — lower, 0.757 kcal/mol
- SIEEEIKKAEEAKEKGKTFIHGDFVATTEELLDELGKRLRKKL [L36G] — lower, 0.032 kcal/mol
- SIEEEIKKAEEAKEKGKTFIHGDFVATTEELLDELHKRLRKKL [L36H] — lower, 0.249 kcal/mol
- SIEEEIKKAEEAKEKGKTFIHGDFVATTEELLDELIKRLRKKL [L36I] — higher, 1.62 kcal/mol
- SIEEEIKKAEEAKEKGKTFIHGDFVATTEELLDELKKRLRKKL [L36K] — lower, -0.007 kcal/mol
- SIEEEIKKAEEAKEKGKTFIHGDFVATTEELLDELMKRLRKKL [L36M] — lower, 0.68 kcal/mol
- SIEEEIKKAEEAKEKGKTFIHGDFVATTEELLDELNKRLRKKL [L36N] — lower, 0.046 kcal/mol
- SIEEEIKKAEEAKEKGKTFIHGDFVATTEELLDELPKRLRKKL [L36P] — lower, -0.108 kcal/mol
- SIEEEIKKAEEAKEKGKTFIHGDFVATTEELLDELQKRLRKKL [L36Q] — lower, 0.304 kcal/mol
- SIEEEIKKAEEAKEKGKTFIHGDFVATTEELLDELRKRLRKKL [L36R] — lower, 0.531 kcal/mol
- SIEEEIKKAEEAKEKGKTFIHGDFVATTEELLDELSKRLRKKL [L36S] — lower, 0.185 kcal/mol
- SIEEEIKKAEEAKEKGKTFIHGDFVATTEELLDELTKRLRKKL [L36T] — lower, 0.179 kcal/mol
- SIEEEIKKAEEAKEKGKTFIHGDFVATTEELLDELVKRLRKKL [L36V] — lower, 0.838 kcal/mol
- SIEEEIKKAEEAKEKGKTFIHGDFVATTEELLDELYKRLRKKL [L36Y] — lower, 0.652 kcal/mol
- SIEEEIKKAEEAKEKGKTFIHGDFVATTEELLDELLARLRKKL [K37A] — higher, 1.5 kcal/mol
- SIEEEIKKAEEAKEKGKTFIHGDFVATTEELLDELLCRLRKKL [K37C] — higher, 2.06 kcal/mol
- SIEEEIKKAEEAKEKGKTFIHGDFVATTEELLDELLDRLRKKL [K37D] — higher, 0.975 kcal/mol
- SIEEEIKKAEEAKEKGKTFIHGDFVATTEELLDELLERLRKKL [K37E] — higher, 1.25 kcal/mol
- SIEEEIKKAEEAKEKGKTFIHGDFVATTEELLDELLFRLRKKL [K37F] — higher, 0.924 kcal/mol
- SIEEEIKKAEEAKEKGKTFIHGDFVATTEELLDELLGRLRKKL [K37G] — higher, 0.864 kcal/mol
- SIEEEIKKAEEAKEKGKTFIHGDFVATTEELLDELLHRLRKKL [K37H] — higher, 1.07 kcal/mol
- SIEEEIKKAEEAKEKGKTFIHGDFVATTEELLDELLIRLRKKL [K37I] — higher, 1.15 kcal/mol
- SIEEEIKKAEEAKEKGKTFIHGDFVATTEELLDELLLRLRKKL [K37L] — higher, 1.51 kcal/mol
- SIEEEIKKAEEAKEKGKTFIHGDFVATTEELLDELLMRLRKKL [K37M] — higher, 1.4 kcal/mol
- SIEEEIKKAEEAKEKGKTFIHGDFVATTEELLDELLNRLRKKL [K37N] — higher, 1.17 kcal/mol
- SIEEEIKKAEEAKEKGKTFIHGDFVATTEELLDELLPRLRKKL [K37P] — lower, -0.465 kcal/mol
- SIEEEIKKAEEAKEKGKTFIHGDFVATTEELLDELLQRLRKKL [K37Q] — higher, 1.37 kcal/mol
- SIEEEIKKAEEAKEKGKTFIHGDFVATTEELLDELLRRLRKKL [K37R] — higher, 1.68 kcal/mol
- SIEEEIKKAEEAKEKGKTFIHGDFVATTEELLDELLSRLRKKL [K37S] — higher, 1.21 kcal/mol
- SIEEEIKKAEEAKEKGKTFIHGDFVATTEELLDELLTRLRKKL [K37T] — higher, 1.26 kcal/mol
- SIEEEIKKAEEAKEKGKTFIHGDFVATTEELLDELLVRLRKKL [K37V] — higher, 1.05 kcal/mol
- SIEEEIKKAEEAKEKGKTFIHGDFVATTEELLDELLWRLRKKL [K37W] — lower, 0.832 kcal/mol
- SIEEEIKKAEEAKEKGKTFIHGDFVATTEELLDELLYRLRKKL [K37Y] — higher, 0.938 kcal/mol
- SIEEEIKKAEEAKEKGKTFIHGDFVATTEELLDELLKALRKKL [R38A] — higher, 1.37 kcal/mol
- SIEEEIKKAEEAKEKGKTFIHGDFVATTEELLDELLKDLRKKL [R38D] — lower, 0.493 kcal/mol
- SIEEEIKKAEEAKEKGKTFIHGDFVATTEELLDELLKELRKKL [R38E] — higher, 0.927 kcal/mol
- SIEEEIKKAEEAKEKGKTFIHGDFVATTEELLDELLKFLRKKL [R38F] — higher, 1.83 kcal/mol
- SIEEEIKKAEEAKEKGKTFIHGDFVATTEELLDELLKGLRKKL [R38G] — lower, 0.522 kcal/mol
- SIEEEIKKAEEAKEKGKTFIHGDFVATTEELLDELLKHLRKKL [R38H] — higher, 1.6 kcal/mol
- SIEEEIKKAEEAKEKGKTFIHGDFVATTEELLDELLKILRKKL [R38I] — higher, 1.73 kcal/mol
- SIEEEIKKAEEAKEKGKTFIHGDFVATTEELLDELLKKLRKKL [R38K] — higher, 1.02 kcal/mol
- SIEEEIKKAEEAKEKGKTFIHGDFVATTEELLDELLKLLRKKL [R38L] — higher, 1.94 kcal/mol
- SIEEEIKKAEEAKEKGKTFIHGDFVATTEELLDELLKMLRKKL [R38M] — higher, 1.9 kcal/mol
- SIEEEIKKAEEAKEKGKTFIHGDFVATTEELLDELLKNLRKKL [R38N] — higher, 0.87 kcal/mol
- SIEEEIKKAEEAKEKGKTFIHGDFVATTEELLDELLKPLRKKL [R38P] — lower, -0.239 kcal/mol
- SIEEEIKKAEEAKEKGKTFIHGDFVATTEELLDELLKQLRKKL [R38Q] — higher, 1.23 kcal/mol
- SIEEEIKKAEEAKEKGKTFIHGDFVATTEELLDELLKSLRKKL [R38S] — lower, 0.842 kcal/mol
